Laboratory results from the supplement of paper PMC10567573.
± gives the standard deviation.

Test: protein stability index of a GFP-peptide fusion (GPS, HEK-293T) (PSI 1-6); higher = more stable
Settings: c terminus: a fixed tail appended
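Also: 24-mer peptide tiles fused after GFP, lentivirally expressed, FACS-sorted into six equal bins by GFP/DsRed ratio, decoded by Illumina sequencing, PSI is the read-weighted mean bin number.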

Sequence	protein stability index (treatment: DMSO)	protein stability index (treatment: MLN4924 1 uM, 8 h)
EDEAGGRFVAFSGEGQSLRKKGRK [UFD1]	5.51 ± 0.25	5.41 ± 0.46
EDITKGTQSLPTASASKFPSSGPV [AUP1]	5.19 ± 0.19	5.08 ± 0.1
EDPFYWVSPGVLVLLAVLPVLLLQ [MOG]	2.52 ± 0.41	2.38 ± 0.69
EDQYEENSHLTSVPHWINSNTLGF [ETS2]	3.2 ± 0.34	3.13 ± 0.3
EDRKLPAPGADVKVHRARKTMPKS [EHMT1]	5.28 ± 0.31	5.19 ± 0.18
EDRLSLKFLPSSEEDNDDAKILPS [DRICH1]	5.34 ± 0.23	5.33 ± 0.11
EDSKRWSKMDQLAKELTAEKRLEG [CHGA]	4.97 ± 0.33	5.11 ± 0.26
EDSYRKQVEVDAQQCMLEILDTAG [RAP1B]	4.62 ± 0.13	4.5 ± 0.14
EDTDPSTLSFNMSDKYPIQDTELP [EDARADD]	5.11 ± 0.12	4.89 ± 0.089
EEEMNALRGQVGGEINVEMDAAPG [KRT17]	5.45 ± 0.34	5.53 ± 0.13
EEERAQDRIATTDDTTAMASASSS [MAGEA10]	5.66 ± 0.17	5.42 ± 0.1
EEERPLPEKEYQRQVWLLFEYPES [KCNA1]	3.33 ± 0.12	3.63 ± 0.28
EEGFMTAELAGVIKRLWKDSGVQA [GNAI1]	3.19 ± 0.49	3.53 ± 0.58
EELNNGEPQTEHQQESESEIDSVP [MIA2]	5.6 ± 0.24	5.52 ± 0.43
EELRKFSSLCYKQRIKSQERETEA [MOG]	4.47 ± 0.28	4.22 ± 0.076
EEMAKSSRASAARVGQLQEALNER [LRRC45]	4.97 ± 0.46	5.12 ± 0.28
EETRVWHRRDGKWQNVHFHCSGAP [CAMK2B]	3.1 ± 0.15	3.11 ± 0.32
EETTSQDWGTPRELTFSYIAFDGV [RTN2]	2.65 ± 0.15	2.8 ± 0.61
EEVRQLLETMARNEVIADINCKGR [OSBPL1A]	3.16 ± 0.33	3.01 ± 0.46
EGATLLLRGLCANTVLRFLDLKGN [LRRC45]	2.6 ± 0.4	2.98 ± 0.77
EGDLPQMEVGSGSRELSLRPSRSG [EID1]	5.07 ± 0.31	5.36 ± 0.35
EGHPFKAYLELEITLSQEQIQKYT [RTN1]	2.33 ± 0.67	2.13 ± 0.26

Sequence	protein stability index (treatment: DMSO)	protein stability index (treatment: MLN4924 1 uM, 8 h)
EGVKRYEQEHAAIQDKLFQVAKRE [CHCHD6]	4.84 ± 0.32	4.78 ± 0.24
EIFAIDLRCGNQGKGWKATRLFHD [DCAF4]	2.24 ± 0.44	2.12 ± 0.22
EISKDNSCKENCTCSSCLLRAPTI [EDARADD]	4.67 ± 0.29	4.86 ± 0.14
EKAKAFWAMRRSYEAIAKHNQVEA [TRIM35]	2.83 ± 0.34	3.18 ± 0.26
EKIAAEIAQAEEQARKRQEEREKE [SMARCE1]	5.44 ± 0.17	5.74 ± 0.25
EKILRELSEEEEDEEEEEEEEEEG [KCNA4]	5.65 ± 0.2	5.69 ± 0.17
EKIWRPNRVFSLQDLCCRAIVSCT [RAB40C]	2.76 ± 0.19	2.88 ± 0.14
EKKDDENIPMETEETHLEETTESQ [SMARCE1]	5.58 ± 0.43	5.39 ± 0.57
EKKDTITNDSLSLKPSWFDFGFAI [MIA2]	2.46 ± 0.19	2.48 ± 0.19
EKNRKDAEDWFFSKTEELNREVAT [KRT17]	4.5 ± 0.14	4.71 ± 0.27
ELACPAERSGHVAVSDGRHMFVWG [KLHDC2]	2.84 ± 0.15	2.92 ± 0.2
ELDIPQSVQQNGSIYIHVYFTKSG [CLPTM1]	2.3 ± 0.57	2.85 ± 0.67
ELEKLAEKNIILEEKIQVLQQQNE [MTUS2]	4.63 ± 0.32	4.53 ± 0.22
ELQLEAANETYENNFDNLDFDLDL [ATF6]	4.76 ± 0.26	5.08 ± 0.11
ENARSGAEAEPEDQDEGEWGLDQE [ZBED1]	5.62 ± 0.15	5.56 ± 0.28
ENFQEGKDMSESQDEVPDEVENQF [TAF7L]	5.58 ± 0.2	5.56 ± 0.24
ENITTVSVIKDHHTRSITSCCFDP [WDR88]	3.55 ± 0.28	3.78 ± 0.16
ENLDNDTETDSLVSAQRERPRRRD [DVL3]	5.51 ± 0.2	5.41 ± 0.29
ENQLVRKQDVLGPSTTPPAHSSSN [SASS6]	5.19 ± 0.21	5.29 ± 0.069
EPGGYDSSSTLMSSELETTSFFDS [DVL3]	4.96 ± 0.31	4.96 ± 0.21
EPSLKATMGLAGRARVKEKFSPEA [ALG2]	4.6 ± 0.34	4.94 ± 0.19
EQLQGFNTRVRELAQAAGFAPQTG [DNAAF3]	3.66 ± 0.28	3.91 ± 0.67

Sequence	protein stability index (treatment: DMSO)	protein stability index (treatment: MLN4924 1 uM, 8 h)
ERGPYRTRKHAHHCHKRRTRSCSS [CLK3]	4.42 ± 0.24	4.51 ± 0.15
ERGSMKTHFNTAQGFRTVLELVIN [OAS1]	2.13 ± 0.43	2.5 ± 0.56
ERGTPGLPGPKGDDGKLGATGPMG [SCARA5]	4.92 ± 0.34	4.95 ± 0.15
ERITILRGNHESRQITQVYGFYDE [PPP2CA]	2.84 ± 0.13	3.1 ± 0.25
ERLQKEEEKRRREEEERLRREEEE [ACBD3]	5.67 ± 0.26	5.59 ± 0.23
ERPPPPPSDDLTLLESSSSYKNLT [MCOLN1]	5 ± 0.21	4.93 ± 0.21
ERQCALRVFKARIYTNRYETNEED [FBXO39]	3.54 ± 0.36	3.61 ± 0.41
ERWLKELRDHADSNIVIMLVGNKS [RAB11A]	2.32 ± 0.29	2.26 ± 0.34
ESFYESTSPECASPQFEGPLSPPP [NEUROD6]	4.92 ± 0.19	4.94 ± 0.22
ESIESYDSCDRLTQSWSSQSSFNS [ETS1]	3.91 ± 0.34	4.1 ± 0.3
ESLPVSLGPESWQQIAMDPEEVKS [BCL2L13]	5.39 ± 0.21	5.27 ± 0.31
ESQLPEEWENNRESLIVFMEQVHR [CPXM2]	3.79 ± 0.33	3.82 ± 0.49
ESRIVEQENAIQTMELRNYFSLYC [SNX8]	2.62 ± 0.3	2.61 ± 0.19
ESSSDSGSSDSEEERATRLAELQE [BRD3]	5.5 ± 0.25	5.51 ± 0.063
ESTFMYLTLDLPTAPLYKDEKEQL [USP39]	3.4 ± 0.2	3.55 ± 0.15
ETFIVPDSFLVALDMDDGTLSFIV [SPSB1]	2.66 ± 0.33	2.58 ± 0.54
ETILNAFKMLDPDGKGKINKEYIK [MYL5]	2.96 ± 0.31	3.17 ± 0.41
EVANFYYEADCLAAAYGGKAAPAA [CEBPB]	2.91 ± 0.38	2.83 ± 0.38
EVEWTEDLALDLGPQSRELTLKVL [C2CD2L]	3.44 ± 0.19	3.6 ± 0.36
EVITAAEFHPHHCNTFVYSSSKGT [PPP2R2B]	3.28 ± 0.3	3.35 ± 0.56
EVLIGAGYSTPADIWSTACMAFEL [SRPK2]	3.14 ± 1.2	2.61 ± 0.88
